PMC10578488

Molecular target: recombinant PRMT5/MEP50 complex (human) (UniProt O14744)
Assay: SEC; PRMT5/MEP50 and purified U7 6S combined (molar ratio 4:8 or 4:2) in 20 mM Hepes pH 7.7, 100 mM NaCl, 2 mM DTT, 1 h on ice; Superose 6

recombinant PRMT5/MEP50 complex (human), sequence (O14744 whole entry, chain 1 of 2): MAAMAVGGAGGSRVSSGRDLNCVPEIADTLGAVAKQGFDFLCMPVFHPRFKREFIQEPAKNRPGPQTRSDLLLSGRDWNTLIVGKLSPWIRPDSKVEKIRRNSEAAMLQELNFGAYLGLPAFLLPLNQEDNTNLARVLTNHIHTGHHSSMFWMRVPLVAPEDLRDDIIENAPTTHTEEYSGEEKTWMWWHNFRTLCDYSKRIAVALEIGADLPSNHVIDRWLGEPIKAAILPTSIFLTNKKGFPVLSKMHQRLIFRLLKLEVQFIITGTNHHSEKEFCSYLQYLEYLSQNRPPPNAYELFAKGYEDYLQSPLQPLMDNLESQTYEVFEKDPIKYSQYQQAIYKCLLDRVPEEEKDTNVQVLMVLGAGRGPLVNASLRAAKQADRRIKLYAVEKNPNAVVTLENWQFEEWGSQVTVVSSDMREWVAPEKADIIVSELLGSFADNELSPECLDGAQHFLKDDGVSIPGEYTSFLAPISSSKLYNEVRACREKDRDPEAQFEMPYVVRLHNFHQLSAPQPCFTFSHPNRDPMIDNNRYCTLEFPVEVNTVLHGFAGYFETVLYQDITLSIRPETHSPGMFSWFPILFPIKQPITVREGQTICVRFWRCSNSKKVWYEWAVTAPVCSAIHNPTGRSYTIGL
recombinant PRMT5/MEP50 complex (human), sequence (Q9BQA1 whole entry, chain 2 of 2, further chain): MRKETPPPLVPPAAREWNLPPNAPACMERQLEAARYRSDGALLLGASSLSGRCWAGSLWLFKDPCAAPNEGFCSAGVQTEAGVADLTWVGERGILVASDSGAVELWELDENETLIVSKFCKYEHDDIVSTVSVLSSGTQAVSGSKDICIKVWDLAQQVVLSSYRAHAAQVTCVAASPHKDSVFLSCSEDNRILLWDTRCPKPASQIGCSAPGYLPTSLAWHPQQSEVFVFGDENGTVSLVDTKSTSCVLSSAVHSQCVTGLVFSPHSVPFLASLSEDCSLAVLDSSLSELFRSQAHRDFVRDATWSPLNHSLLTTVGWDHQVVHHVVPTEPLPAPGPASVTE

Q: Which stoichiometry N (U7 6S per PRMT5/MEP50 heterooctamer) does the source give for “U7 6S complex (MBP-Lsm10/11ΔNL heterodimer, SmE/F/G heterotrimer and pICln) (from UniProt Q969L4 1-123; P83369 153-360; P62304 1-92; P62306 1-86; P62308 1-76; Q61189 1-236)” here?
A: 1
